The assay deals with alphaVbeta3 integrin (human) (UniProt P06756). As to the kind of experiment: ELISA, purified antibody on alphaVbeta3.

These results are taken from patent US20060127407A1.

As a reminder, the EC50 is the midpoint of the concentration-response curve.

Sequence of alphaVbeta3 integrin (human) (P06756 31-1048, chain 1 of 2): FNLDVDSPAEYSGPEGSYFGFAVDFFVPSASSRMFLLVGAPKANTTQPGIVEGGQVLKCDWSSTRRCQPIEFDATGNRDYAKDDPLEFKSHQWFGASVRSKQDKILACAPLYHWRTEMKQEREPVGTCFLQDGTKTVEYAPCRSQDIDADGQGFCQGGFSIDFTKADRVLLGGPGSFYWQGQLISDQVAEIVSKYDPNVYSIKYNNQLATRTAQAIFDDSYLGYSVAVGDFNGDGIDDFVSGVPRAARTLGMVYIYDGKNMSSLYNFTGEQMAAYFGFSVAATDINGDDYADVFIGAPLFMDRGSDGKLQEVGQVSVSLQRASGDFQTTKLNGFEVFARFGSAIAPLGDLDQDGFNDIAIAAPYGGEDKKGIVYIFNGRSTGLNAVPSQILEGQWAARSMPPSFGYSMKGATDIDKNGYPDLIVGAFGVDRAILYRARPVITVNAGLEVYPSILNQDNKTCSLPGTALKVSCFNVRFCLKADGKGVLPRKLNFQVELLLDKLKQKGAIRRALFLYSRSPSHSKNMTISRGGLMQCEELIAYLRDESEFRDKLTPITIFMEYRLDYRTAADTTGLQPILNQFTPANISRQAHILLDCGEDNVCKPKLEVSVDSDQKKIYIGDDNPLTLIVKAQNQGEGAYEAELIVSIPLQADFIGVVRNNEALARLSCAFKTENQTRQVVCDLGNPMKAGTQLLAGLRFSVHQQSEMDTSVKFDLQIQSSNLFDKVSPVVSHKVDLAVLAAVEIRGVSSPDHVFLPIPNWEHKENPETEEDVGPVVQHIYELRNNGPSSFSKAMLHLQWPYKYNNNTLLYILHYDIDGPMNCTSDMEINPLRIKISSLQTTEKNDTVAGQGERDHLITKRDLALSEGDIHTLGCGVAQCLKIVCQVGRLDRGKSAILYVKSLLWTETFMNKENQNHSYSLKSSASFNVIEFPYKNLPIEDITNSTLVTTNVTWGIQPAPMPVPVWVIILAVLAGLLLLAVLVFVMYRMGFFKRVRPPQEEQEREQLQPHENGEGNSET
Sequence of alphaVbeta3 integrin (human) (P05106 27-788, chain 2 of 2, further chain): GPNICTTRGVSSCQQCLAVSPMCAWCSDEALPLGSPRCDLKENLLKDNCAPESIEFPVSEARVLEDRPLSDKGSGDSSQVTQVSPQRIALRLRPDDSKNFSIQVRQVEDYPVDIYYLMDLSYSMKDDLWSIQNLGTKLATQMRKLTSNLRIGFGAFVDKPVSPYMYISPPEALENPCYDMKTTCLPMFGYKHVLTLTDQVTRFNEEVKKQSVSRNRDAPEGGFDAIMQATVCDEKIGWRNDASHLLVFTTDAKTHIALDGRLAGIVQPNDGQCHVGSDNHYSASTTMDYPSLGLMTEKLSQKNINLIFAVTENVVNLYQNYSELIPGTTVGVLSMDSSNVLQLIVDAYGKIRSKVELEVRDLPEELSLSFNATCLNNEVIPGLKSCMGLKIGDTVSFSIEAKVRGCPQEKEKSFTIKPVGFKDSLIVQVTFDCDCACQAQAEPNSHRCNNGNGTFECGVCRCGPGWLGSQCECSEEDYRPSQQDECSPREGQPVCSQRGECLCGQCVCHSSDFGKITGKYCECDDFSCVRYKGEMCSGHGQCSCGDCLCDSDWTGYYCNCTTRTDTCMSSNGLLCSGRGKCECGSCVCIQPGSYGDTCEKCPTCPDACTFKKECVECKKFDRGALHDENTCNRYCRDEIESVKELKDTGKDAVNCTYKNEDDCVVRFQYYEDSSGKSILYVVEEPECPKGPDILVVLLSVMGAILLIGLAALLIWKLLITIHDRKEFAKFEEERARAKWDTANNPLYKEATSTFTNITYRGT

B1: c7E3 IgG (antibody, INN chains, looked up, V domains shown)
VH: EVQLQQSGTVLARPGASVKMSCEASGYTFTNYWMHWVKQRPGQGLEWIGAIYPGNSDTSYIQKFKGKAKLTAVTSTTSVYMELSSLTNEDSAVYYCTLYDGYYVFAYWGQGTLVTVSA
VL: EIVLTQSPVTLSVTPGDSVSLSCRASRDISNNLHWFQQTSHESPRLLIKYASQSMSGIPSRFSGSGSGTDFTLSINSVETEDFGMYFCQQTNSWPYTFGGGTKLEIK
modifications: IgG
B1: the EC50 was found to be 0.07 µg/mL.
